Consider nine molecules from patent publication US20220348670A1 (BIODURO BEIJING, published 2022).

By EC50 is commonly meant the concentration needed to bring the measured effect to its halfway point. High values mean weaker potency, low ones greater potency.

The target of assay [1] is T1, full-length human OX40 protein (human, UniProt P43489 29-277).
T1 sequence (looked up): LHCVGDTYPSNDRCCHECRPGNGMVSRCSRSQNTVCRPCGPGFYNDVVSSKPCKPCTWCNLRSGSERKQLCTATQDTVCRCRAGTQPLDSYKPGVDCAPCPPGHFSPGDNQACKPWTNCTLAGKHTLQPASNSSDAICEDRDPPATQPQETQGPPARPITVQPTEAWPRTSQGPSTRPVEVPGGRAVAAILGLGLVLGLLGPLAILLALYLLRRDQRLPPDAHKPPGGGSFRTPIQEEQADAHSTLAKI
In words: cell-based or functional assay.

The target in assay [2] is T1, full-length human OX40 protein. Nature of the assay: FACS on Jurkat-hOX40 cells, PE anti-human FC secondary antibody. As for the experimental part:
Jurkat-hOX40 stable cell lines constructed in Example 2.1 were expanded and cultured in a cell culture flask, and cells in the logarithmic growth phase were counted. The cells were centrifuged at 1000 rpm for 5 min and then resuspended in FACS buffer (PBS+1% FBS) to 2×10⁶ cells/mL, and added to a 96-well FACS culture plate at 200 μL per well. After centrifugation at 1000 rpm for 5 min, the supernatant was removed, and a series of concentration gradients of purified anti-human OX40 antibodies to be tested or isotype control were added at 200 μL per well, incubated at 4° C. for 1 hour in the dark, centrifuged at 1000 rpm for 5 min, and then added with 200 μL of PE fluorescently labeled anti-human FC secondary antibody (purchased from Invitrogen) per well, and incubated at 4° C. for 1 hour in the dark. After washing twice with FACS buffer, PBS buffer containing 1% paraformaldehyde at 200 μL per well was added to resuspend cells, and a FACS instrument (BD Accuri C6) was used for detection and analysis.

Assay [3] has the same target. In words: FACS on L929-hOX40 cells, PE anti-human FC secondary antibody. The method, then: The L929-hOX40 stable cell line constructed in Example 2.1 was cultured and expanded to 90% confluence in a cell culture flask. After washing with PBS, the cell culture was digested with 0.25% Trypsin (purchased from Thermofisher) to form a single-cell suspension, neutralized with 10% FBS-containing medium, and counted. After centrifugation at 1000 rpm for 5 min, the cells were resuspended to 2×10⁶ cells/mL with FACS buffer (PBS+1% FBS), added to a 96-well FACS culture plate at 200 μL per well, centrifuged at 1000 rpm for 5 min and the supernatant was removed. A series of concentration gradients of anti-human OX40 antibodies to be tested or isotype control were added at 200 μL per well, and incubated at 4° C. for 1 hour in the dark. After centrifugation at 1000 rpm for 5 min, 200 μL of PE fluorescently labeled anti-human FC secondary antibody (purchased from Invitrogen) was added to each well, and incubated at 4° C. for 1 hour in the dark. After washing twice with FACS buffer, PBS buffer containing 1% paraformaldehyde at 200 μL per well was added to resuspend the cells, and a FACS instrument (BD Accuri C6) was used for detection and analysis.

For another assay, the target named is T2, OX40-mFc protein (UniProt P43489 29-214).
T2 sequence (looked up): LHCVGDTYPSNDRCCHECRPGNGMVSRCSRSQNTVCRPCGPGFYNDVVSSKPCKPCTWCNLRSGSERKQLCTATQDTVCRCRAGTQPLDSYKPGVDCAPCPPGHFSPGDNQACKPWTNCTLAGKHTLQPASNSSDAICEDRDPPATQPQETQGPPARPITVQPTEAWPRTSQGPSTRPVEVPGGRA
Nature of the assay: phage ELISA, monoclonal phage supernatant on OX40-mFc.

A further assay has as its target Milk. In words: phage ELISA, monoclonal phage supernatant on milk (background control).
The next assay has as its target T3, OX40 (CRD3-4human) (human, UniProt P43489 108-277, limits assumed).
T3 construct: domain: CRD3-4; Named only in the results sentence; its construction is not described; also called CHOS-OX40 (CRD3-4human)
T3 sequence (looked up): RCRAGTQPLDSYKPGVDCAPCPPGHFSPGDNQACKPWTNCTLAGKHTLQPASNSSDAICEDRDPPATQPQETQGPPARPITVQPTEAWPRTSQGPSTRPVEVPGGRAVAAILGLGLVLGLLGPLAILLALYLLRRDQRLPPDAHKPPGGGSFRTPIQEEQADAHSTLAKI
In words: FACS on transiently transfected CHO-S cells. The text has this: (§1) Transient transfection of OX40 expression vector: CHO-S cells were revived, and passaged for at least 2 times, and then seeded into a 6-well plate at a density of 1×10⁶ cells/well. At the following day, the above expression vectors expressing different domains of OX40 were transfected into CHO-S cells by PEI transfection method.

For another assay, the target named is T4, murine full-length OX40 (murine, UniProt P47741 20-272).
T4 construct: whole, on cells; also called CHOS-OX40 (mus); PCMV3-OX40 (Mus)
T4 sequence (looked up): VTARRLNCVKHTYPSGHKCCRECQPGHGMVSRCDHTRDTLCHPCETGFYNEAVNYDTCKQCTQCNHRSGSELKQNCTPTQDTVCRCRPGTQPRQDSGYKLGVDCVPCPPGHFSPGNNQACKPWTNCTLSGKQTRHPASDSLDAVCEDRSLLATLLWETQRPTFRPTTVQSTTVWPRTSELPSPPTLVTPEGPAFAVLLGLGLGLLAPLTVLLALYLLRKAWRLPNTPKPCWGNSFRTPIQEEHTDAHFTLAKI
Nature of the assay: FACS on transiently transfected CHO-S cells.
Text: as §1

For Isotype control (human IgG) (antibody), the Maximum value (RLU), NF-kB reporter gene assay in assay [1] came to 2650 RLU. Also, the Maximum mean fluorescence intensity value (MFI) is 999 MFI in assay [2] and 8960 MFI in assay [3].

B1: OX40 BC3-7 (phage-displayed VHH clone) (VHH)
VHH: EVQLVESGGGLVQPGGSLRLSCAASGSIYDFDVMGWFRQAPGKGRELVAAINSFGDITYYPDSVEGRFTISRDNAKRMVYLQMNSLRAEDTAVYYCAADWHVLIQQVLGYWGQGTQVTVSS
notes: Tested as phage in monoclonal culture supernatant (M13 display), not as purified protein; the phage coat fusion is not described
In the case of B1, the “ELISA Results (OD450)” value with OX40-mFc protein came to 3.12 OD450; with Milk, 0.045 OD450.

B2: anti-human OX40 antibody BC3-7 (OX40 VHH-Fc) (Fc fusion)
chain: EVQLVESGGGLVQPGGSLRLSCAASGSIYDFDVMGWFRQAPGKGRELVAAINSFGDITYYPDSVEGRFTISRDNAKRMVYLQMNSLRAEDTAVYYCAADWHVLIQQVLGYWGQGTQVTVSS
notes: VHH fused through a linker to human IgG Fc, expressed in ExpiCHO, purified on Protein A; also called OX40 BC3-7; OX40 VHH-Fc antibody; not shown: linker encoded by the CMV-12GS-FC vector; human IgG FC fragment (hFC)
With B2, in assay [1], the “EC50, NF-kB reporter gene assay” value amounted to 0.13 nM and the “Maximum value (RLU), NF-kB reporter gene assay” value (“Maximum value (RLU)” below) was found to be 48400 RLU. Further, in assay [2], the EC50 stood at 0.548 nM and the “Maximum mean fluorescence intensity value (MFI)” value worked out at 24100 MFI. The binding result with OX40 (CRD3-4human) is reported as “no binding”. In addition, the binding result with murine full-length OX40 is “no binding”. Moreover, in assay [3], the EC50 came to 0.693 nM and the “Maximum mean fluorescence intensity value (MFI)” value came to 327000 MFI.

B3: OX40 BC3-6 (phage-displayed VHH clone) (VHH)
VHH: EVQLVESGGGLVQPGGSLRLSCAASGSILDSNLMGWFRQAPGKGRELVASINSYDDNTYYPDSVEGRFTISRDNAKRMVYLQMNSLRAEDTAVYYCAAQVFVGWPYTDQMHDYWGQGTQVTVSS
notes: as for B1
Turning to B3, the entries for the “ELISA Results (OD450)” value with OX40-mFc protein and with Milk were 3.21 OD450 and 0.045 OD450, respectively.

B4: anti-human OX40 antibody BC3-6 (OX40 VHH-Fc) (Fc fusion)
chain: EVQLVESGGGLVQPGGSLRLSCAASGSILDSNLMGWFRQAPGKGRELVASINSYDDNTYYPDSVEGRFTISRDNAKRMVYLQMNSLRAEDTAVYYCAAQVFVGWPYTDQMHDYWGQGTQVTVSS
notes: VHH fused through a linker to human IgG Fc, expressed in ExpiCHO, purified on Protein A; also called OX40 BC3-6; OX40 VHH-Fc antibody; not shown: linker encoded by the CMV-12GS-FC vector; human IgG FC fragment (hFC)
For B4, in assay [1], the “EC50, NF-kB reporter gene assay” value is 0.162 nM and the “Maximum value (RLU)” value came to 50300 RLU. Also, in assay [2], the concentration for a half-maximal effect (EC50) was 0.683 nM and the “Maximum mean fluorescence intensity value (MFI)” value amounted to 12800 MFI. The binding result with OX40 (CRD3-4human) is reported as “no binding”. Also, the binding result in the assay with murine full-length OX40 is given as “no binding”. In assay [3], the EC50 came to 0.545 nM and the “Maximum mean fluorescence intensity value (MFI)” value was 198000 MFI.

B5: OX40 BC3-4 (phage-displayed VHH clone) (VHH)
VHH: EVQLVESGGGLVQPGGSLRLSCAASGFIFSAYFMGWFRQAPGKGRELVAAINSNDDITYYPDSVEGRFTISRDNAKRMVYLQMNSLRAEDTAVYYCAAWLGAENYGYWGQGTQVTVSS
notes: as for B1
Consider B5, for which the “ELISA Results (OD450)” value with OX40-mFc protein amounted to 3.31 OD450; in the assay with Milk, 0.045 OD450.

B6: anti-human OX40 antibody BC3-4 (OX40 VHH-Fc) (Fc fusion)
chain: EVQLVESGGGLVQPGGSLRLSCAASGFIFSAYFMGWFRQAPGKGRELVAAINSNDDITYYPDSVEGRFTISRDNAKRMVYLQMNSLRAEDTAVYYCAAWLGAENYGYWGQGTQVTVSS
notes: VHH fused through a linker to human IgG Fc, expressed in ExpiCHO, purified on Protein A; also called OX40 BC3-4; OX40 VHH-Fc antibody; not shown: linker encoded by the CMV-12GS-FC vector; human IgG FC fragment (hFC)
For B6, in assay [1], the “EC50, NF-kB reporter gene assay” value is 0.175 nM and the “Maximum value (RLU)” value turned out to be 55700 RLU. Moreover, in assay [2], a half-maximal response (EC50) required 0.395 nM and the “Maximum mean fluorescence intensity value (MFI)” value turned out to be 24000 MFI. Moreover, the binding result with OX40 (CRD3-4human) is “no binding”. The binding result in the assay with murine full-length OX40 was “no binding”. In assay [3], the concentration for a half-maximal effect (EC50) was 0.862 nM and the “Maximum mean fluorescence intensity value (MFI)” value came to 308000 MFI.

B7: OX40 BC3-1 (phage-displayed VHH clone) (VHH)
VHH: EVQLVESGGGLVQPGGSLRLSCAASGSIFSVYVMGWFRQAPGKGRELVAAITPFDDNTYYPDSVEGRFTISRDNAKRMVYLQMNSLRAEDTAVYYCAADWEWPEYNYWGQGTQVTVSS
notes: as for B1
In the case of B7, the “ELISA Results (OD450)” value amounted to 3.45 OD450 in the assay with OX40-mFc protein and 0.047 OD450 with Milk.

B8: anti-human OX40 antibody BC3-1 (OX40 VHH-Fc) (Fc fusion)
chain: EVQLVESGGGLVQPGGSLRLSCAASGSIFSVYVMGWFRQAPGKGRELVAAITPFDDNTYYPDSVEGRFTISRDNAKRMVYLQMNSLRAEDTAVYYCAADWEWPEYNYWGQGTQVTVSS
notes: VHH fused through a linker to human IgG Fc, expressed in ExpiCHO, purified on Protein A; also called OX40 BC3-1; OX40 VHH-Fc antibody; not shown: linker encoded by the CMV-12GS-FC vector; human IgG FC fragment (hFC)
B8: in assay [1], the “EC50, NF-kB reporter gene assay” value was 0.209 nM and the “Maximum value (RLU)” value is 53400 RLU. In addition, in assay [2], the half-maximal effective concentration (EC50) is 0.257 nM and the “Maximum mean fluorescence intensity value (MFI)” value is 17500 MFI. In the assay with OX40 (CRD3-4human), the binding result is reported as “no binding”. Also, in the assay with murine full-length OX40, the binding result is recorded as “no binding”. Besides, in assay [3], the EC50 came out at 0.488 nM and the “Maximum mean fluorescence intensity value (MFI)” value was found to be 285000 MFI.
